Test results reported in US20150183880A1.

How the values were obtained:
[1] = target: IGF-1R and EGP-1 together on cancer cell lines (MCF-7, DU-145, ME-180); assay: flow cytometry (FACScan), MCF-7 cells; structural control
[2] = target: recombinant human IGF-1R (R&D Systems, Catalog #391-GR), extracellular domain (human) (UniProt P08069); assay: rhIGF-1R-coated beads; competitor unlabeled R1
[3] = target: recombinant human IGF-1R (R&D Systems, Catalog #391-GR), extracellular domain (human) (UniProt P08069); assay: rhIGF-1R-coated beads; competitor unlabeled 24-31
[4] = target: recombinant human IGF-1R (R&D Systems, Catalog #391-GR), extracellular domain (human) (UniProt P08069); assay: rhIGF-1R-coated beads; competitor unlabeled 1H7
[5] = target: recombinant human IGF-1R (R&D Systems, Catalog #391-GR), extracellular domain (human) (UniProt P08069); assay: rhIGF-1R-coated beads; competitor unlabeled cR1
[6] = target: recombinant human IGF-1R (R&D Systems, Catalog #391-GR), extracellular domain (human) (UniProt P08069); assay: rhIGF-1R-coated beads; competitor unlabeled 2C8
[7] = target: recombinant human IGF-1R (R&D Systems, Catalog #391-GR), extracellular domain (human) (UniProt P08069); assay: rhIGF-1R-coated beads; competitor unlabeled 3B7
[8] = target: recombinant human IGF-1R (R&D Systems, Catalog #391-GR), extracellular domain (human) (UniProt P08069); assay: rhIGF-1R-coated beads; competitor unlabeled hR1
[9] = target: recombinant human IGF-1R (R&D Systems, Catalog #391-GR), extracellular domain (human) (UniProt P08069); assay: rhIGF-1R-coated beads; competitor unlabeled 24-57
[10] = target: recombinant human IGF-1R (R&D Systems, Catalog #391-GR), extracellular domain (human) (UniProt P08069); assay: rhIGF-1R-coated beads; competitor unlabeled MAB391
[11] = target: recombinant human IGF-1R (R&D Systems, Catalog #391-GR), extracellular domain (human) (UniProt P08069); assay: rhIGF-1R-coated beads; competitor unlabeled 17-69
[12] = target: recombinant human IGF-1R (R&D Systems, Catalog #391-GR), extracellular domain (human) (UniProt P08069); assay: rhIGF-1R-coated beads; competitor unlabeled 24-60
[13] = target: recombinant human IGF-1R (R&D Systems, Catalog #391-GR), extracellular domain (human) (UniProt P08069); assay: rhIGF-1R-coated beads; competitor unlabeled αIR-3
[14] = target: recombinant human IGF-1R (R&D Systems, Catalog #391-GR), extracellular domain (human) (UniProt P08069); assay: rhIGF-1R-coated beads; competitor unlabeled 1-2
[15] = target: EGP-1 expressed on cancer cell lines (MCF-7, DU-145, ME-180) (UniProt P09758); assay: flow cytometry (FACScan), MCF-7 cells
[16] = target: EGP-1 expressed on cancer cell lines (MCF-7, DU-145, ME-180) (UniProt P09758); assay: flow cytometry (FACScan), ME-180 cells
[17] = target: EGP-1 expressed on cancer cell lines (MCF-7, DU-145, ME-180) (UniProt P09758); assay: flow cytometry (FACScan), DU145 cells
[18] = target: IGF-1R expressed on cancer cell lines (MCF-7, MCF-7L, CaPan1, DU-145, ME-180, Hep G2, HT-29, LNCaP) (human) (UniProt P08069); assay: 125I-IGF-1 binding to MCF-7L cells with antibody at 1000 ng/mL
[19] = target: IGF-1R expressed on cancer cell lines (MCF-7, MCF-7L, CaPan1, DU-145, ME-180, Hep G2, HT-29, LNCaP) (human) (UniProt P08069); assay: 125I-IGF-1 binding to MCF-7L cells with antibody at 100 ng/mL
[20] = target: IGF-1R expressed on cancer cell lines (MCF-7, MCF-7L, CaPan1, DU-145, ME-180, Hep G2, HT-29, LNCaP) (human) (UniProt P08069); assay: 125I-IGF-1 binding to MCF-7L cells with antibody at 10 ng/mL
[21] = target: IGF-1R expressed on cancer cell lines (MCF-7, MCF-7L, CaPan1, DU-145, ME-180, Hep G2, HT-29, LNCaP) (human) (UniProt P08069); assay: 125I-IGF-1 binding to MCF-7L cells with antibody at 0 ng/mL (baseline)
[22] = target: IGF-1R and EGP-1 together on cancer cell lines (MCF-7, DU-145, ME-180); assay: flow cytometry (FACScan), MCF-7 cells; control

Chain of EGP-1 expressed on cancer cell lines (MCF-7, DU-145, ME-180) (P09758 27-323 limits assumed): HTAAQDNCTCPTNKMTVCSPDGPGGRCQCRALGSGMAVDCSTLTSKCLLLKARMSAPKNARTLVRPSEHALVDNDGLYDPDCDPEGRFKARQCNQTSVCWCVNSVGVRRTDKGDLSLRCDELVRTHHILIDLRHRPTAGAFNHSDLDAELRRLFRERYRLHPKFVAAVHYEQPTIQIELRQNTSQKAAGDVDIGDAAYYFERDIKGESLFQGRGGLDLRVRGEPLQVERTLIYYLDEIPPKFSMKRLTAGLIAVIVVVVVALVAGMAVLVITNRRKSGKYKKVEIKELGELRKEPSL

Row | Substance | % binding [2] [%] | % binding [3] [%] | % binding [4] [%] | % binding [5] [%] | % binding [6] [%] | % binding [7] [%] | % binding [8] [%] | % binding [9] [%] | % binding [10] [%] | % binding [11] [%] | % binding [12] [%] | % binding [13] [%] | % binding [14] [%] | also measured
1 | 22-20 (bispecific hexavalent DNL construct: hLL2 IgG-AD2 with four hA20 Fab-DDD2) (bispecific antibody) | – | – | – | – | – | – | – | – | – | – | – | – | – | % Positive [1]: 3.1%; MFI [1]: 2.11
2 | 24-60 (commercial anti-IGF-1R mAb) (antibody) | 0 | 18 | 100 | 0 | 88 | 79 | 0 | 88 | 0 | 82 | 0 | 21 | 100 | –
3 | Hex-hRS7 (monospecific hexavalent DNL construct of hRS7, anti-EGP-1) | – | – | – | – | – | – | – | – | – | – | – | – | – | % Positive [15]: 99.9%; MFI [15]: 35.7; % Positive [16]: 100%; MFI [16]: 59.6; % Positive [17]: 93.7%; MFI [17]: 17
4 | MAB391 (commercial mouse anti-IGF-1R monoclonal antibody, R&D clone 33255.111) | 40 | – | – | – | – | – | – | – | 0 | – | – | – | – | % binding of 125I-IGF-1 [18]: 38%; % binding of 125I-IGF-1 [19]: 54%; % binding of 125I-IGF-1 [20]: 95%; % binding of 125I-IGF-1 [21]: 100%
5 | human IgG (control) (antibody) | – | – | – | – | – | – | – | – | – | – | – | – | – | % Positive [22]: 2.34%; MFI [22]: 1.84
6 | αIR-3 (commercial anti-IGF-1R mAb) (antibody) | 86 | 52 | 115 | 97 | 97 | 76 | 107 | 87 | 0 | 89 | 0 | 0 | 95 | –
